{
  "source": "the DeepSol protein solubility set",
  "data": [
    {"test": "soluble on expression in E. coli; label from the status in PepcDB or PDB records", "values": [
      {"sequence": "MDLVFRPERYPFLTQDLPGVGGEIRVEPEDFQVEEVPAYLPKGEGEHLYLLLEKEGRTTREVLEFLRDEVGVPEKEIGVAGLKDKRAKTRQWFSIPRKYEDALCLLENLQGVRLLAADLHTNKLRTGHLKGNRFHILIRRPKGGVAEAEAVLKRLAEKGVPNYYGPQRFGLGGLNPVRGYKLVKEGKGRGSPWLKRFLIGSLQSLLFNDWVALRMALGLYDRVVPGDWAKKHATGGEFLVEDPGEAERALRLEISATGPLFGKKYPEAQGEARAIEDEVLARYGLKREEFRARRGARRPIRVPLAEWKVEEAPEGLWLSFFLPKGSYATSLLREVMKVEALDHLEAEPAPEDAEGL", "soluble on expression in E. coli": "soluble"},
      {"sequence": "MDQAQRFLRQHPEHADLRIWGLNAFDPSQGNLLLPRLEWRRCGGKATLRLTLFSESSLQHDAIQAKEFIATLVSIKPLPGLHLTTTREQHWPDKTGWTQLIELATKTIAEGELDKVVLARATDLHFASPVNAAAMMAASRRLNLNCYHFYMAFDGENAFLGSSPERLWRRRDKALRTEALAGTVANHPDDKQAQQLGEWLMADDKNQRENMLVVEDICQRLQADTQTLDVLPPQVLRLRKVQHLRRCIWTSLNKADDVICLHQLQPTAAVAGLPRDLARQFIARHEPFTREWYAGSAGYLSLQQSEFCVSLRSAKISGNVVRLYAGAGIVRGSDPEQEWQEIDNKAAGLRTLLQME", "soluble on expression in E. coli": "not soluble"},
      {"sequence": "MASSSSTLPLHMYIRPLIIEDLKQILNLESQGFPPNERASEEIISFRLINCPELCSGLFIREIEGKEVKKETLIGHIMGTKIPHEYITIESMGKLQVESSNHIGIHSVVIKPEYQKKNLATLLLTDYIQKLSNQEIGNKIVLIAHEPLIPFYERVGFKIIAENTNVAKDKNFAEQKWIDMERELIKEEYDN", "soluble on expression in E. coli": "soluble"},
      {"sequence": "MGSDKIHHHHHHMSETVTESYIGSAIVYIDGRDCGNVSGVKLAIDQETKSLPNYRGGGGNADEVTLIKAVKLSGTFYDFNNDNLALAMRGKIDVLTAAAVVDEDITAVLDGLAPTVHMIDTSVAPVVKNTAGDSTYVLDEDYVVSAAGIRALSGGAITAGQALKLSYTSQAGNALQALTESGKTVSVVVDGINDSTGKPWTLKFYKWKPTPTSGLDLIGTDYGSFDIEGAVLADSSIVATGKSKFFVRSAA", "soluble on expression in E. coli": "not soluble"},
      {"sequence": "MKVLILGGGYTGQRLAQLLAAQSIPVLATTRSGQWPLDEPCVTFDAGSTPLLLPDPAALAGVTHVLSTIPPLGDGGDPVLSTLLPTLQYLSLQWCGYLSTTGVYGDTQGAWVDEDSPLQSTNRRSQQRIAIEAQWLASGLPAHIFRLPGIYGPGRSSFDRLRRGDNQRLLKPGHVFCRIHVDDIAAALWASLQQPNPGRIYNVSDDFPCEPALLIEAAAQLMGVELPPPLPVDAVELSPMAASFWSECRRVRNDRLKQELGVQLRYPSYREGLAAIWAAELEHHHHHH", "soluble on expression in E. coli": "not soluble"},
      {"sequence": "MFNIMLVKFVVIFALILASCRVEADNTSVLPEGFVDAAQRSTHTNNWAVLVDASRFWFNYRHVANVLSIYRSVKRLGIPDSQIILMIADDMACNARNPRPGQVYNNANQHINVYGDDVEVDYRGYEVTVENFVRLLTGRTQNGTARSKKLLSDAGSNVLIYLTGHGGDGFLKFQDSEEITSQELADGIQQMWEKKRYNELFFMVDTCQAASLYEKFTSPNVLAVASSLVGEDSLSHHVDPSIGVYMIDRYTYYALEFLEKVQPFSKRTIGEFLQVCPKRVCISTVGVRKDLYPRDPHKVPITDFFGAIRPTRVSTDRINVTLANEELEHHHHHH", "soluble on expression in E. coli": "not soluble"},
      {"sequence": "MIGATGSGGTGGHNDVVRQGFICPFCMEDFGEYERLICHVENDHPEEDSSDLAGMFVSNVKGFFDKAKRGIQKLDAKKSIADLASNVETEFTETTEKLVERAPLPRIPKPLPPDEILPGTRRSKTREFLSTRELNINEVAVRTNMLIIRLDRLINGGPKDKDPVKRKEFEREVVPWLDDAEAVCCPLCASRFGLTRRRHHCRLCGRVLCHSCSKFLSFDTAKTLTSSSNPLGDTHIIVEEPNTVENEQELLQPEENGRRSFFSLSQKSMDKMKRAMAGAVQKVHSAATGEEIIAGALNEQDLSEHMRVCNLCLRDLHFRESQMDKKEPPEFVQQYDLMKVMIEEVKNLVPTYVRVVTSLKNGESVYSHKHGEELRSKCLEIQKSIDYVSKKIAEGANDKPNSAKEQQLRKNIRLYAVQALQGLIGQMESLPTAEECSNLIIKRKERRAKDFARVNRTVMKMSSSMPQLQEQHSHLNSTSSVSSFGGPSSIDDGWSAEDNDLVFEPSSIEDDTIQTDHPLYEQREQLRKFLFQASATGKLDEMDILERNLKEIEEEMMRLGLSC", "soluble on expression in E. coli": "not soluble"},
      {"sequence": "TITEWSVNMYNHLRGTGEDENILFSPLSIALAMGMMELGA", "soluble on expression in E. coli": "soluble"},
      {"sequence": "GPGSMNNRHSGSEKTPATQKKDSLAPSATNADITKVKICSGHTRPICHINYSNIIDGTFWLVTSCHDAKPMLRNGETGDWVGTFEGHKGAVYCSVFNEDATRLVTGSGDYSSMVWNAVTGDKLHTWSHPKYIKSCDWCGNKIATGCVDGLVRIFDAQAYDANPVCFDSTEKVNQVKATYFIDHTTMVTACENTIMKWDLRDTSLPYLRKEIPGLNFLEYTHSNSIVAAHEKSISFIDTTSLEIKSSFTTSDDIECASLSPNGQNVAAGSKLKAKEFTVDGTELESHRGHHGPIFHIRWAPDGKSFTSGAEDGMARIWPSHDIIETYDNEN", "soluble on expression in E. coli": "not soluble"},
      {"sequence": "MAIKLKSPWEIERMREAGALLTEVVEEVARHVEPGVSTWELDQIAYEAIRKRKAKPAFLGLYGFPATLCTSVNEVVVHGIPSKEPLKEGDILSVDVGLIYQGFAADMARTFPVGRVSPEAERLIRDTEAAFWEGMKYLRPGFRLGDVGHAIQTFLESRGYGVVREFVGHGVGREIHEDPQVPNFGKPGTGPKIRPGMTLALEPMVTLRPAPVVILDDGWAASAGRGNLAAHYENTVLVTEEGPELLTGVALARAE", "soluble on expression in E. coli": "soluble"},
      {"sequence": "MRSGDAEIKGIKPKVIEEYSLSQGSGPSNDSWKSLMSSAKDTPLQYDHMNRESLKKYFNPNAQLIEDPLDKPIQYRVCEKCGKPLALTAIVDHLENHCAGASGK", "soluble on expression in E. coli": "soluble"},
      {"sequence": "MGKEMASEYELGQVRLGEFQLYTNGEELYRKLFEDINDAEKYIYIHFYIVGKDEISQEFLQLLEKKASSGVEVKLSVDRIGGYKLKKKVISRLKENGVKFTFSKKPKLKNVFYSLHQRNHRRIVTIDGKVSYVGGFNIGKEYLGQNPKFGPWRDYHVRIHGEGAADMERKFAEDWKEDTGEKMPIHESIPTLGNVKYQYLFSNGKGLWEKYGALLKKAKKSLIIATPYFVPSKEMVKELKAALNRGVNVKILVPFKSDAILLKQAAYPYLKDMLHAGAEIYQYRNGFFHGKVTIIDGEIVDIGTANFDNRSFYLNCESNCIIYDKTVVDEVWSRLQVDFHKSKRFSEEDFEKISRWDWFLARIANVLASYL", "soluble on expression in E. coli": "not soluble"},
      {"sequence": "MDFLEKVLDNQVTESKELVRLYDYDLYTLGEVADRMRQNMHQKIVYFNVNRHLNPSNICADACKFCAFSAHRKNPNPYEMSLEEILEKVKNSYNKGIKEVHIVSAHNPNYSYEWYLKVFETIKQEMPNLHLKAMTAAEVHFLSVKFNKPFELVLEDMLKAGVDSMPGGGAEIFDEEIRRKICNGKVGSSRWLEIHAYWHKLGKMSNATMLFGHIENKIHRIDHMLRIKKIQSPKNQVENKEGGFNAFIPLLYQKENNYLNVEKSPSAIEILKTIAISRILLNNIPHIKAYWATLGLNLALVAQEFGANDLDGTIEIESIQSAAGAKSRHGLEKEDLIFKIKDAGFVAVERDSLYNFIQKF", "soluble on expression in E. coli": "not soluble"},
      {"sequence": "MEKNWYVVHTYSGYENKVKANLEKRVESMGMQDKIFRVVVPEEEETDIKNGKKKVVKKKVFPGYVLVEIVMTDDSWYVVRNTPGVTGFVGSAGSGSKPTPLLPGEAETILKRMGMDERKTDIDFELKETVKVIDGPFANFTGSIEEIDYDKSKVKVFVNMFGRETPVELEFTQIDKL", "soluble on expression in E. coli": "soluble"},
      {"sequence": "MSLKTPIFAQQTDPALTSAVLGQTAALKKVHKDRKKTQEKIIAAEVAVTASLERIHHVEDKMLDYLSNAQGAMQNLYQIKRAGELVAKEIPQNCSLLLKSVGGNLKGTVIAAMVSDELTDAATQMTALFPFMKQLVTSGKYDVTGDDGKNEKHKVNLLNASERYYIANEVVSRLEAINTNLFILAWQVRTLSWNDLWFSLDPEGWANVMSGKNIIGGIISDWNQGYSLKEGHHHHHH", "soluble on expression in E. coli": "soluble"},
      {"sequence": "MTRCPERPGFMPRLSSHHFSRSRLSAPLLASGARVKLLCAPAGSGKTALLAECLQQAPETCRVSWLPLSGGRHSPQGLCAALAQALGLERDDEATVLQHLAHLQAPAWIFIDDYCRVAAADLDLLLDRLLSLDNPQLTWWLGCRRRPLCNWPRLLLDDQLFELDGPALAFSQIEIEQLLQRLPQPLCAQTASRILQRSGGWCAGVRIALLEGSELTIQPCKPGRPNTLLEYLEHELFSVLPAELAQVWQVLAHLPRFNAELCEHLFGVGEGAQYLRTLQDMACFIEPWDGGGDWLQVFPPLARLMRDE", "soluble on expression in E. coli": "not soluble"},
      {"sequence": "MIGQEFRQLLIDKWGYSYDVQLRRTQGKIFLQVMWKYLEQASFPLSESQYQEHLDSITNYLNALGGTIQVQTFITQTKERPRLGKAVSIPLDLGDRSSEWIL", "soluble on expression in E. coli": "not soluble"},
      {"sequence": "MGSDKIHHHHHHMSIDIDIIKARAKNEYRLSKVRGEAMISVRIPGGILPAHLLTVARDIAETWGNGQIHLTTRQKLAMPGIRYEDIDNVNAALEPFLREIEIELCDVQVEDTKAGYLAIGGRNIVACQGNRICQKANTDTTGLSRRLEKLVYPSPYHLKTVIVGCPNDCAKASMADLGIIGVAKMRFTADRCIGCGACVKACSHHAVGCLALKNGKAVKEESACIGCGECVLACPTLAWQRKPDQLWQVRLGGRTSKKTPRVGKLFLNWVTEDVIKQVIVNLYEFEKEMLGGKPIYLHMGHLIDKGGYLRFKERVLRGVQLNPEAMVAERIYWAEDESVARMHLKPAGH", "soluble on expression in E. coli": "not soluble"},
      {"sequence": "MAHHHHHHMKTLKEALTNVLSSLNIAEKKEILNVLYHILQKIIENPSRAKFRSLKKDNKTFVNKLLQFKESDELLRSLGFEEETEIWFFPVKNDHKLSSNLTEIRAFIKEHVNTIYNNQDSIFETGTASSSAHLPTDEKNVTENTSNLGDTCNNSEGLTLGGLSKRRLEKERLELLSQKENTIKLLQEHADKWIIQITGAENTLYSNETFQMQFKFTEKYPIESPEVIFLGQPPIHPHIYSNGHICLSILYDHWSPVLSVNSICLSIISMLSSCKKKRKPLDDILYCSTGPRISPKNMKWMFHDDKV", "soluble on expression in E. coli": "not soluble"},
      {"sequence": "AHHHHHHGSIRRVKREIRVIGFDDGTFPHKKRGEKVILVGIVMKGGSDVLGAVSRWITIDGLDVTEAIIDSILSSRFRGDLRVILLKGITYAGFNVVDVNRVFRETGLPLIVVVRKRPDFEAIENALRKHFEDWEKRMELIKAGGKIYELIPGKVYYQAIGIDAETAAKIIRATSRNSLIPEALRIAHIVASAVMRGESSKE", "soluble on expression in E. coli": "not soluble"},
      {"sequence": "MHFVKKVPTTEEEKAAKQKEHTKRSQQFLHVRDKIVAKREKGEYDDEILSLTQAILEKNADIYTFWNIRRTTIELRMEANEKVQQSADAEEEEKTKSSQKIENLLAGELFLSYECIKSNPKSYSAWYQRAWALQRQSAPDFKKELALCEKALQLDCRNFHCWDHRRIVARMAKRSEAEELEFSNKLINDNFSNYSAWHYRSIALKNIHRDEKTGAPKIDDELIASELQKVKNAFFMDAEDQSAWTYTRWLLEVGSGKEFLRPESHTPIELISASFHGNNTTLVFSRAVTIQFLLTFVDTENTTGWRAFSSTSPNPTSSRVWQYLSDTPLRVVTSNPTDLENISWTELNEQPYVNLDRLKTIYDVVEVPQPAYIGELLEDCKQLIELEPKNKWPLYMRTLVLLEYQPIKSYEEIIKNLENLSENLDPKRSELYKSLISRQNLNFSIREQFERILGPDTDWLTCRYSKLTSLEGVEYLAGFVGSADFSGNRLKEIQRIVLPNLKSLTINENPIESLPPSPCLSHLTFFSIAGTQIASVSAVMPFFQTIPSLDRLVFCETPLVEKTEELRAQLPGVRLIPHWL", "soluble on expression in E. coli": "soluble"}
    ]}
  ]
}
